Source: article PMC8184850, “Cryo-EM structure of TFIIH/Rad4–Rad23–Rad33 in damaged DNA opening in nucleotide excision repair” (Nature Communications, 2021)

How the values were obtained:
Conditions in all cases: both partners purified
Tfb2 = molecular target: T1, Tfb2 (yeast, UniProt Q02939 1-513); test: cryo-EM structure; coreTFIIH and Rad4–Rad23–Rad33 on −24*/+24 AAF-DNA with ATP, glycerol gradient with glutaraldehyde; Map 1 3.86 Å (TFIIH), Map 2 9.2 Å, Map 3 7.9 Å; Rad4, Rad33 and the Tfb1 PH domain placed by rigid-body docking of known structures or homology models
T1 construct: Tfb2 (p52 homologue), subunit of yeast coreTFIIH; Tfb2C 412–513 as printed; Stood in the assays as part of coreTFIIH; also called yeast homologue of p52; source: purified from yeast as a subunit of coreTFIIH
T1 sequence (looked up): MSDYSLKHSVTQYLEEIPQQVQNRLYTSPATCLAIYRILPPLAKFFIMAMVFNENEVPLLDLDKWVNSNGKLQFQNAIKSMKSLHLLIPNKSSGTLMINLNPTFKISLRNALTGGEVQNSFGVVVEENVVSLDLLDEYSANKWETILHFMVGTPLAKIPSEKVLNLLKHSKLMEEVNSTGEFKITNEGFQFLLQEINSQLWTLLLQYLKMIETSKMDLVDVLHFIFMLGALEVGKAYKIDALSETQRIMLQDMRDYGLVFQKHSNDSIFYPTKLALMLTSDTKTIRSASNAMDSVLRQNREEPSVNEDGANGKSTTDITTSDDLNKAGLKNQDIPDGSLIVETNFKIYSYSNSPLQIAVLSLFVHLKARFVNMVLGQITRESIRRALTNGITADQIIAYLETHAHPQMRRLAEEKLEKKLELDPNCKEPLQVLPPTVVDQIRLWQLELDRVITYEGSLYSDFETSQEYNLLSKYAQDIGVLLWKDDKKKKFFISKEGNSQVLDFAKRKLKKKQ

Rad4–Rad23–Rad33 complex = molecular target: T2, Rad4–Rad23–Rad33 complex (yeast, UniProt P14736 1-754; P32628 1-398; Q04231 1-177); test: cross-linking; XL-MS: TFIIH/Rad4–Rad23–Rad33 assembled on −24/+24 AAF-DNA, 1 mg/mL in 20 mM HEPES pH 7.6, 300 mM potassium acetate, 5% glycerol, 5 mM DTT; 6 mM DSBU on ice 2 h; MeroX, FDR <1%
T2 construct: Rad4 (XPC homologue), yeast; Rad23 (RAD23B homologue), yeast; Rad33 (CETN2 homologue), yeast; plasmid pETDuet-RAD33; also called Rad4–23–33; yeast homologue of XPC–RAD23B–CETN2; copies: + +
T2 sequence 1: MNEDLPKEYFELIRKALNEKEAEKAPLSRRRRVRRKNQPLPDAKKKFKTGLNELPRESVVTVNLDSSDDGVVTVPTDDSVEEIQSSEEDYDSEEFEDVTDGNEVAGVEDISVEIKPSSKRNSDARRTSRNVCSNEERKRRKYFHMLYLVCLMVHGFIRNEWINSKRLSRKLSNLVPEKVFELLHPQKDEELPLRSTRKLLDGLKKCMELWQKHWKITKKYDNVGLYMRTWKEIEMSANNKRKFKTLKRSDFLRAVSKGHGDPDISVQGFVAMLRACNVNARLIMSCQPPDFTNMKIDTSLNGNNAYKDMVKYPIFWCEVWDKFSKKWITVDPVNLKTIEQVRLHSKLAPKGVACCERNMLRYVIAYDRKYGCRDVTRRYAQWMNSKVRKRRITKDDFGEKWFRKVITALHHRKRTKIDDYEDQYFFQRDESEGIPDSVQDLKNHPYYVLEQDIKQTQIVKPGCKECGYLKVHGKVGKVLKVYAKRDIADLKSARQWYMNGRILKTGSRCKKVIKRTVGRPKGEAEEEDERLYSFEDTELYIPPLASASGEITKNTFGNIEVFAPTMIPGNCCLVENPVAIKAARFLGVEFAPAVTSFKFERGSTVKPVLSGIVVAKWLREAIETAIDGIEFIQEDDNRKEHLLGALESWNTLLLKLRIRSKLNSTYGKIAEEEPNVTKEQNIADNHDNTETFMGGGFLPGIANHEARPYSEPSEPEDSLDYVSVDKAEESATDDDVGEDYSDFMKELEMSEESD
T2 sequence 2: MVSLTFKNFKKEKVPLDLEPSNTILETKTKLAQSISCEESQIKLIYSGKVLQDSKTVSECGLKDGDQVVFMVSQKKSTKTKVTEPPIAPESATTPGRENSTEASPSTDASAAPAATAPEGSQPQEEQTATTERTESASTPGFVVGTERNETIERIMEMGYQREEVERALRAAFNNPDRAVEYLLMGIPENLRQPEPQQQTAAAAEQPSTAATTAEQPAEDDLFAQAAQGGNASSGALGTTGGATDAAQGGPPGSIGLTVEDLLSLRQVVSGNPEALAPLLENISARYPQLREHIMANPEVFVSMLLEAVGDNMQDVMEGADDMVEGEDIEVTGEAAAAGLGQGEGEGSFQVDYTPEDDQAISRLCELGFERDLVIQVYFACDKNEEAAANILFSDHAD
T2 sequence 3: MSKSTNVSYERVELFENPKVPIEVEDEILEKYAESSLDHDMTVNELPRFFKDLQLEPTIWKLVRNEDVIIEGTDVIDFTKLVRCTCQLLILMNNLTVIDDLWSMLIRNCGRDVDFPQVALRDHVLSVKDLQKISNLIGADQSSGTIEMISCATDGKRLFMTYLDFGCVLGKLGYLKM

Rad3 = molecular target: T3, Rad3 (yeast, UniProt P06839 1-778); test: cryo-EM structure; coreTFIIH and Rad4–Rad23–Rad33 on −24*/+24 AAF-DNA with ATP, glycerol gradient with glutaraldehyde; Map 1 3.86 Å (TFIIH), Map 2 9.2 Å, Map 3 7.9 Å; Rad4, Rad33 and the Tfb1 PH domain placed by rigid-body docking of known structures or homology models
T3 construct: Rad3 (XPD homologue), subunit of yeast coreTFIIH; Stood in the assays as part of coreTFIIH; also called yeast homologue of XPD; source: purified from yeast as a subunit of coreTFIIH
T3 sequence (looked up): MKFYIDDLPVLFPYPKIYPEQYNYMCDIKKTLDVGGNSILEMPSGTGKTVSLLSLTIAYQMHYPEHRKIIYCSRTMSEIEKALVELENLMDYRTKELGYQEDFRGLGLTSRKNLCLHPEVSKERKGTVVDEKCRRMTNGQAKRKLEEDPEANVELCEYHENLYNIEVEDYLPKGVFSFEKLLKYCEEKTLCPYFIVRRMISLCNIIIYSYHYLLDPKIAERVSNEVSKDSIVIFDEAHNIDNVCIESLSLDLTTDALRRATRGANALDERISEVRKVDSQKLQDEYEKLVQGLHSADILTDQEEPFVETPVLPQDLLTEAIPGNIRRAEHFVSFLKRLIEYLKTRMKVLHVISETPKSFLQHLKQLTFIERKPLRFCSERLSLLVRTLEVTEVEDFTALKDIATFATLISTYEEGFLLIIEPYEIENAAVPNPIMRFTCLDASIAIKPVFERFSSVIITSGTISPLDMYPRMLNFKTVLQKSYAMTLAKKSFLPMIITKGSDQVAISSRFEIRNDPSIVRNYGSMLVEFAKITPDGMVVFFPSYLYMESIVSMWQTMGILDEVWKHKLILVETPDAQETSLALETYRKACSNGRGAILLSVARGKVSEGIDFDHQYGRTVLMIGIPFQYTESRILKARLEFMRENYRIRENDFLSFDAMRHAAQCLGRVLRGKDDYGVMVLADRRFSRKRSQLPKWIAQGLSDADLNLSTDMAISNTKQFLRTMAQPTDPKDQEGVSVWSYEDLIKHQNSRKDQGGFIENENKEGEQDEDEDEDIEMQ

Rad4 = molecular target: T4, Rad4 (yeast, UniProt P14736 1-754); test: as above
T4 construct: Rad4 (XPC homologue), yeast; Stood in the assays as part of Rad4–Rad23–Rad33; written alone for the contacts of the subunit; also called yeast homologue of XPC; source: Hi5 insect cells, co-expressed with Rad23, purified as the Rad4–Rad23 complex
T4 sequence (looked up): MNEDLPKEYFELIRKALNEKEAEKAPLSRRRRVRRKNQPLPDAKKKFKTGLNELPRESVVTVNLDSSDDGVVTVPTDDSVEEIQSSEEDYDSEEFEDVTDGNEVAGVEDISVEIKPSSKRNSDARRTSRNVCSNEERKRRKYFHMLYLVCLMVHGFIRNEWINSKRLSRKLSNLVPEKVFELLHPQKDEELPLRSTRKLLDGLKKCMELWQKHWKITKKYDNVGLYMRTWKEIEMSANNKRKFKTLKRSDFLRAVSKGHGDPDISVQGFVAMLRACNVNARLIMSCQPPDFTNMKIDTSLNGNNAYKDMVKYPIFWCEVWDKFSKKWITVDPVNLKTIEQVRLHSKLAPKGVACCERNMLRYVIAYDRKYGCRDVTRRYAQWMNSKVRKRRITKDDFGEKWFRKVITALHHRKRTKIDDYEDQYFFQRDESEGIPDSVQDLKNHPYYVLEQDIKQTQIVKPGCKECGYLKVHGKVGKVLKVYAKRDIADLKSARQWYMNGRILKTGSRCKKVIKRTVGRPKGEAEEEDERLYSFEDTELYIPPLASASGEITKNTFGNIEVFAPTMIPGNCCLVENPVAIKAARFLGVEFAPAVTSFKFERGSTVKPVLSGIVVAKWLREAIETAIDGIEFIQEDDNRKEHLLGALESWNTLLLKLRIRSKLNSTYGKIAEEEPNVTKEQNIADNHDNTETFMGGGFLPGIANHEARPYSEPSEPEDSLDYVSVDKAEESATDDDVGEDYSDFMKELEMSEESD

B1: Tfb5 (natural protein, yeast, UniProt Q3E7C1 1-72, looked up)
chain: MARARKGALVQCDPSIKALILQIDAKMSDIVLEELDDTHLLVNPSKVEFVKHELNRLLSKNIYNPMDEEENQ
notes: Tfb5 (p8 homologue), subunit of yeast coreTFIIH; Stood in the assays as part of coreTFIIH; also called yeast homologue of p8; source: purified from yeast as a subunit of coreTFIIH
Q: Does B1 bind (Tfb2)?
A: Result: binds

B2: Tfb1 (natural protein, yeast, UniProt P32776 1-642, looked up)
chain: MSHSGAAIFEKVSGIIAINEDVSPAELTWRSTDGDKVHTVVLSTIDKLQATPASSEKMMLRLIGKVDESKKRKDNEGNEVVPKPQRHMFSFNNRTVMDNIKMTLQQIISRYKDADIYEEKRRREESAQHTETPMSSSSVTAGTPTPHLDTPQLNNGAPLINTAKLDDSLSKEKLLTNLKLQQSLLKGNKVLMKVFQETVINAGLPPSEFWSTRIPLLRAFALSTSQKVGPYNVLSTIKPVASSENKVNVNLSREKILNIFENYPIVKKAYTDNVPKNFKEPEFWARFFSSKLFRKLRGEKIMQNDRGDVIIDRYLTLDQEFDRKDDDMLLHPVKKIIDLDGNIQDDPVVRGNRPDFTMQPGVDINGNSDGTVDILKGMNRLSEKMIMALKNEYSRTNLQNKSNITNDEEDEDNDERNELKIDDLNESYKTNYAIIHLKRNAHEKTTDNDAKSSADSIKNADLKVSNQQMLQQLSLVMDNLINKLDLNQVVPNNEVSNKINKRVITAIKINAKQAKHNNVNSALGSFVDNTSQANELEVKSTLPIDLLESCRMLHTTCCEFLKHFYIHFQSGEQKQASTVKKLYNHLKDCIEKLNELFQDVLNGDGESMSNTCTAYLKPVLNSITLATHKYDEYFNEYNNNSN
notes: Tfb1 (p62 homologue), subunit of yeast coreTFIIH; Stood in the assays as part of coreTFIIH; also called yeast homologue of p62; source: purified from yeast as a subunit of coreTFIIH
Q: Does B2 bind (Rad4–Rad23–Rad33 complex)?
A: Result: binds

Q: Does B2 bind (Rad3)?
A: Result: binds

Q: Does B2 bind (Rad4)?
A: Result: binds
